# Measurements published in the RNAGym collection of RNA variant scans (doi:10.1073/pnas.2313332121).
# Variants at the floor of the assay were thinned out.
# B1: TPR 5TU (parent)
# chain: GGAUCUUCUCGAUCUAACAAAAAAGACAAAUCUGCCACAAAGCUUGAGAGCAUCUUCGGAUGCAGAGGCGGCAGCCUUCGGUGGCGCGAUAGCGCCAACGUUCUCAACUAUGACACGCAAAACGCGUGCUCCGUUGAAUGGAGUUUAUCAUG
# Variants of: B1
# Assay: polymerase ribozyme fitness, log enrichment relative to wild type (log ratio); higher = more active; in vitro selection for triplet polymerase activity
# Method in brief: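 Frozen incubation at −7 °C formed the core of a single, triplicate in vitro selection round applied to PCR-built, transcribed mutant libraries of each subunit of a heterodimeric triplet polymerase ribozyme. Extended constructs were gel-excised, captured with streptavidin beads and amplified by RT-PCR, and input and output libraries were Illumina-sequenced with a filter of ≥10 input reads and ≥1 read per output. Fitness is the logarithm of genotype enrichment relative to wild-type enrichment, with inverse-variance-weighted replicate averaging, and the logarithm is base 2.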
row,Variant,polymerase ribozyme fitness (log ratio)
1,C76U G83U G84U C123U,-2.49
2,C85U A115U C118A A120G,-3.37
3,C57G G83A G124U G141A,-1.22
4,G62A U82A,-0.432
5,G141A A147C,-3.63
6,A20U A113U,-3.74
7,A26C G50C G71U A73G,≤ -4.2
8,C125U G143U,-3.2
9,A26C A137G U144A,-4.13
10,A3G C38G G42U G59C G70C U78C C87A,≤ -4.2
11,U56G G83A C87G C116G G140C,≤ -4.2
12,C96U U146C,-0.67
13,G59C C87G,≤ -4.2
14,G25U A26G G68C A107G U135C,≤ -4.2
15,G59A G83U G84A,-1.23
16,C27A U56A,-3.7
17,G84U U101G G143U,≤ -4.2
18,C8U A19G A39U C54U U61A G71A U77A G80C G88U G112C A113G C125G A150U,≤ -4.2
19,U4A A19C A89U C96U A138G U146G,≤ -4.2
20,C103U,-0.357
21,A16G A28U C87A A107C,≤ -4.2
22,C63A C79U G94C A119G,≤ -4.2
23,G74U C96A C118U,-3.97
24,C10A C14U A26U A30G G84A U139G A142U,≤ -4.2

row,Variant,polymerase ribozyme fitness (log ratio)
1,A41U G80A A97U,-1.76
2,A39U U61G C85U C93U U134A,≤ -4.2
3,C36A G42C U55A A66C C69U C105G A122U G126A A142C,≤ -4.2
4,A16C U82A C95G G141A,-3.41
5,G80C G92U,-3.97
6,A23G A26U G94C A110C,≤ -4.2
7,U56A C132G A137U,-4.03
8,C35U C96U U101C C118U,-0.95
9,G48U G92U U144C,-0.761
10,U55A A60U U101G,-0.433
11,G80A C99G,-1.02
12,A26G G46A G48C C51U G71C C103U A120G C149G,≤ -4.2
13,G11A A12U C51G U55G G62C U90C C108G,≤ -4.2
14,C54U G84U,-2.22
15,U55C C93G,-3.57
16,G83C A98G,-3.71
17,U15G A24C G59C G68C C79G G81U C95A C132U,≤ -4.2
18,A26C A37U C79U A106U G143C U146A U148C,≤ -4.2
19,A60C U82A G84U U102G G126U,≤ -4.2
20,U6C C18U G59C A66U A73C U101G U139C U144A,≤ -4.2
21,U31G C43G U53A G83U,≤ -4.2
22,A28C C57U G84A C96U G124U,≤ -4.2
23,A37C G92U,-0.276
24,G62C C79U G141U,≤ -4.2

row,Variant,polymerase ribozyme fitness (log ratio)
1,C35U C95A C105G,-2.51
2,U55G A89G G94A A119U,-1.9
3,C85U A89C C93U C149U,-3.26
4,C75A U144G,≤ -4.2
5,A89G G117U,-0.974
6,U33G G50U U90G C96G,-3.98
7,C96U A97U,-0.832
8,U61A C76A,-3.6
9,C43A U61A U127C C132U U145G,≤ -4.2
10,C5G A147C,-0.562
11,G34C U45A G50C A52C U53A C76A G81A G92A C105G,≤ -4.2
12,G46A C96U U134G A138G,≤ -4.2
13,A20G G68U G126U C132A,≤ -4.2
14,G42C U61A G88A C95U U104G,≤ -4.2
15,A16G A19G A23U A26C U44A U53A C87G C103A,-4.11
16,A73U C85U,-0.649
17,A20C A23U A28U G65U A73U G86U,≤ -4.2
18,C36U C114U,-3.21
19,A28C A52G C76G A91U U146G,≤ -4.2
20,A52U,-1.49
21,C35G G58C G92U C125G A150U,≤ -4.2
22,A16C C38U G50A C95G C116G,-4.14
23,A52C C85U,-1.81
24,G81A C85G,-1.86

row,Variant,polymerase ribozyme fitness (log ratio)
1,A37G C57G A97G,-2.57
2,G42C C95A C99G A107U,≤ -4.2
3,C35G C76U G92A C123G A137U,≤ -4.2
4,A37G A52G C69A U144G,-4.11
5,A23U C96U U127C U144G A150G,≤ -4.2
6,C57A A73U G84A U135A,-2.22
7,A47C A73U G124C,-3.78
8,C87U A122U,-0.5
9,A40U U130A,-3.96
10,A91G G152A,-3.71
11,U13G A24U A28U A29U C54U C69A C76G G94U A97C U135C,≤ -4.2
12,C14U G83U C95U C116U,-1.49
13,G80A G84A C116A U135G,≤ -4.2
14,G46A U82C C95U C125G,-1.73
15,C5G A19U A91G A113G,≤ -4.2
16,U56A U101G,0.0793
17,A89U G94U,-1.2
18,A20C C87U,-1.36
19,A40C U61A C76A,≤ -4.2
20,U61A A107C G128U U139A,≤ -4.2
21,C14G C54G G68C C85U C105A C114A A137U,≤ -4.2
22,C51A C96U A97U,-2.73
23,A91G A142C,-3.5
24,A24U G84A G94U C96A A121U G126U U135A,-4.1

row,Variant,polymerase ribozyme fitness (log ratio)
1,A16U A26C G84A,-3.52
2,C8G A12G C35U C75A G86U U109G U127G A137G,≤ -4.2
3,U13G,-0.261
4,A37G C51G A52G U53A A89C G136C A138U,≤ -4.2
5,C35U A52G C76A A89C U145A,-3.45
6,A41C G92U,-1.08
7,C96G U139G G140U C149A,≤ -4.2
8,U7A G50A U78A C79G G86A C87A C99G A115U G141U,≤ -4.2
9,C14U,-1.06
10,A21U A142U,-0.552
11,A24U U77A G92A C125G,≤ -4.2
12,C5G C10G A26C C93U A106G G140U,≤ -4.2
13,C54G A89U A147C,-2.1
14,G124U G136A,0.382
15,A89G C93A,-3.94
16,G128C,-2.21
17,A17G G84A,-0.469
18,C5A A20U C35U A91C U101A C105G U145G,≤ -4.2
19,A60G C85A U101G,-2.94
20,C14G G48C U146A,-4.06
21,C51U C87U C103A C116A,-2.08
22,U6G U31C U55A C95U A98G G141C,-1.61
23,C105U A138U,-2.82
24,G25C C105U U144C,-2.67

row,Variant,polymerase ribozyme fitness (log ratio)
1,C27U G141C,-2.54
2,A30U C35U A52C C96U A107G C108G C114A,≤ -4.2
3,C87A G117C G136U G141U,≤ -4.2
4,A60G A91G,-2.73
5,C69U C96A,-1.12
6,U7C A41C C87U G126A,-3.82
7,G58C G140C,-4.02
8,A12C U33A G42U A60G C93G,≤ -4.2
9,A12C A24G A52C A60C,≤ -4.2
10,C32U G59C G84A,-1.81
11,U6C A66C C72A U77C U82A U111C G126A,≤ -4.2
12,A52G C87U C116G A122C G136U,-2.85
13,U15G G59A G83U C118G,-1.13
14,A37G C87U,-2.16
15,C14A A17G U31A G59A C75G C95U U101G A113U A121U,≤ -4.2
16,C5G G67U G70C G86A C132G,≤ -4.2
17,C5A U6G G46A U56A U82C C93A A107G C125U G136U,≤ -4.2
18,U6G A40C,1.13
19,A137U U145A A147C,≤ -4.2
20,U13G G48A C93A C125G,≤ -4.2
21,A19U A41C A73U A91C C93U C129G G140U C149U,≤ -4.2
22,U4C C14U G42A G84A C105G,≤ -4.2
23,A37C C57G C76G A98G A138C G140U,-3.42
24,C85G C114A A150C,≤ -4.2

row,Variant,polymerase ribozyme fitness (log ratio)
1,A12G G88C,-3.71
2,G59A C87U,-1.42
3,C18U U53A C85A C96A A137G,≤ -4.2
4,G83C C95U G126A,-2.05
5,U33C C85U A119G,-3.71
6,A49C U55G U61A C96A U111G A119U U148C,≤ -4.2
7,C51A G92U,-1.06
8,U33G C95U,-2.22
9,G11U G25C C32U G50C A60G C95U,≤ -4.2
10,C85A C96U A119C,-0.783
11,A40C C85G A106G G117C,-1.29
12,G50U C54U C93A G136U,-4.07
13,G92C G141C,-0.623
14,C57G A73U G83C G133U G143C U145C,≤ -4.2
15,C93U A119G C123U U135G,-4.18
16,G42C G86U U109G G141U,≤ -4.2
17,G42C A66C,≤ -4.2
18,C36U C51G C76G G81C A107G G143A,≤ -4.2
19,C85G G94A G117U G124U U135G,-3.69
20,G67U C85A C93U,≤ -4.2
21,A30U U134C,-3.45
22,C85U U101G C125U,-0.351
23,A12G A39C G84A A138C G143U U148C,≤ -4.2
